Measurements published in patent US11622990 (FUDAN UNIVERSITY, dated 2023).
Ends that are not written are not given here. Fluorescein‑5‑maleimide = reacted with thiol of C-terminal Cys

B1: LVAP-Fluorescein (peptide)
peptide: SNTRVAPC(Fluorescein‑5‑maleimide)
notes: also called Fluorescein-labeled ^LVAP
B2: LVAP (L-configuration peptide SNTRVAP) (peptide)
peptide: SNTRVAP

Experiments:
[1] = biological target: T1, GRP78 on the surface of glioma cell U87 (UniProt P11021 19-654, limits assumed); experiment: confocal microscopy of U87 cells, 5 µM labelled peptide, 4 h, 37 °C (uptake)
T1 construct: whole, on cells; also called receptor protein on the cell surface; GRP78 protein

[2] = biological target: T2, GRP78 on the surface of HUVEC cells; experiment: confocal microscopy of HUVEC cells, 5 µM labelled peptide, 4 h, 37 °C (uptake)
T2 construct: also called GRP78 on human umbilical vein endothelial cells

[3] = biological target: T3, Recombinant human glucose-regulated protein GRP78 (human, UniProt P11021 19-654, limits assumed); experiment: SPR (Biacore T200), recombinant human GRP78 coupled to a CM5 chip, peptide injected at 0.3125-20 µM
T3 construct: also called Bip
T3 sequence (P11021 19-654 limits assumed): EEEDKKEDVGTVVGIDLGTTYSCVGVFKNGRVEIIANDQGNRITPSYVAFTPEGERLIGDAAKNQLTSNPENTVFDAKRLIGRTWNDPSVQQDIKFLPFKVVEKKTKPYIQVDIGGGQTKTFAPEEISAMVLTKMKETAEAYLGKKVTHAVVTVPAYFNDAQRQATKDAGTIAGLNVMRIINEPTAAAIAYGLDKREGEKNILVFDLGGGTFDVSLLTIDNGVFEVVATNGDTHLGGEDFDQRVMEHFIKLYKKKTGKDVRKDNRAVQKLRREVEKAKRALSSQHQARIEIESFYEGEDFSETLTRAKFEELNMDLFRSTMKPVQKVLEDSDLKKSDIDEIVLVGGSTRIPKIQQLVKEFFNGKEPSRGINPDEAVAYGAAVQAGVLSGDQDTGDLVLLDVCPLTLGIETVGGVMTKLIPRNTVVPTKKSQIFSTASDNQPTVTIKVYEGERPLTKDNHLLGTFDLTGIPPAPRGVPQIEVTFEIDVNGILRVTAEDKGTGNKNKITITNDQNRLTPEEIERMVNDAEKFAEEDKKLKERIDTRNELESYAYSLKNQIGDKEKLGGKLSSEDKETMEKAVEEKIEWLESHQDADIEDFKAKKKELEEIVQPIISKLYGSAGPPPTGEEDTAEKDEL

T2 sequence (chain, as listed by the source limits assumed): as the sequence (P11021 19-654 limits assumed) above
T1 sequence (P11021 19-654 limits assumed): as above

Binder | binding result [1] | binding result [2] | Kd [3] [nM] | koff [3] [s⁻¹]
B1 | binds | binds | – | –
B2 | – | – | 2700 | 0.019
